The labels stand for the following.
B1: Ab1 (antibody, human IgG1, kappa, N297A, V domains shown)
VH: QSVKESGGRLVTPGTPLTLTCTVSGFSLSNYDMIWVRQAPGKGLESIGMIYDDGDTYYASWAKGRFTISKTSTTVDLKIISPTTEDTATYFCVKGVSNHWGPGTLVTVSS
VL: DVVMTQTPASVEAAVGGTVTIKCQASQSISSYLAWYQQKPGQPPKLLIYSASTLASGVPSRFKGRGSGTEFTLTISDLECADAATYYCQSYDGSSGSSYGVGFGGGTEVVVKR
notes: rabbit/human chimeric antibody, made in HEK-293
B2: Ab11 (antibody, human IgG1, kappa, N297A, V domains shown)
VH: QSLEESGGRLVTPGTSLTLTCTASGFSLSAYDILWVRQAPGKGLESIGMMYDDGDTYYATWAKGRFIISRTSTTMDLKIISPTTEDTATYFCVKGVSNIWGQGTLVTVSS
VL: B1 VL with V2I, T7I, S30D, Y32S, R65S, S76G, G96S, S98Y, V101I
notes: as for B1
B3: Ab10 (antibody, human IgG1, kappa, N297A, V domains shown)
VH: B1 VH with K4E, N30S, Y31A, S60T, N98S, H99V, P102Q
VL: B1 VL with K22N, Q27E, S28N, S30Y, S31R, Y32S, R65S, G96S
notes: as for B1
B4: Ab12 (antibody, human IgG1, kappa, N297A, V domains shown)
VH: B1 VH with K4E, F26S, N30D, M49I, S60T, K78R, H99M
VL: B1 VL with A9S, E12S, S30G, Y32S, P43R, S50A, R65S, G96S
notes: as for B1
B5: Ab4 (antibody, human IgG1, kappa, N297A, V domains shown)
VH: B1 VH with K4E, C21Y, N30K, Y31H, M49I, S60N, H99I
VL: B1 VL with Q24R, S31V, P40A, S50Q, T53K, R65S, G96S
notes: as for B1
B6: Ab7 (antibody, human IgG1, kappa, N297A, V domains shown)
VH: QSVEESGGRLVTPGTPLTLTCTVSGFSLSSYAMSWVRQAPGEGLEWIGIISDSGSTYYASWAKGRFTISKTSTTVDLRITSPTTEDTATYFCAREPEYGYDDYGDWVSDLWGQGTLVTVSS
VL: DIVMTQTPASVEAAVGGTVTIKCQASQSISDYLSWYQQKPGQPPKLLIYRASTLASGVPSRFKGSGSGTQFTLTISDLECADAATYYCQSYYYSSSITYRNAFGGGTEVVVKR
notes: as for B1
B7: Ab9 (antibody, human IgG1, kappa, N297A, V domains shown)
VH: B6 VH with S29N, S55R, R78K, Q113P
VL: B6 VL with I2V, D31S
notes: as for B1
B8: Ab2.H (antibody, human IgG1, kappa, N297A, V domains shown)
VH: EVQLVESGGGLVQPGGSLRLSCAASGFTVSKYDMIWVRQAPGKGLESIGIIYDDGDTYYASSAKGRFTISRDNSKNTLYLQMNSLRAEDTAVYYCVKGVSNIWGQGTLVTVSS
VL: DIQMTQSPSTLSASVGDRVTITCQASQSISNYLAWYQQKPGKAPKLLIYSASTLASGVPSRFSGSGSGTEFTLTISSLQPDDFATYYCQSYEGSSSSSYGVGFGGGTKVEIKR
notes: humanized form of Ab2
B9: Ab11A.H (antibody, human IgG1, kappa, N297A, V domains shown)
VH: B8 VH with K31A, M34I, I35L, I50M, I51M, S61T
VL: B8 VL with S30G, N31S, Y32S, S98Y, V101I
B10: Ab12.H (antibody, human IgG1, kappa, N297A, V domains shown)
VH: not shown
VL: B8 VL with S30G, N31S, Y32S, S50A, E92D
notes: humanized form of Ab12
B11: Ab10.H (antibody, human IgG1, kappa, N297A, V domains shown)
VH: B8 VH with K31S, Y32A, I50M, S61T, N101S, I102V
VL: B8 VL with Q27E, S28N, S30Y, N31R, Y32S, E92D
notes: humanized form of Ab10
B12: Ab4.H (antibody, human IgG1, kappa, N297A, V domains shown)
VH: B8 VH with Y32H, S61N
VL: B8 VL with Q24R, N31V, S50Q, T53K, E92D
notes: humanized form of Ab4
B13: Ab11.H (antibody, human IgG1, kappa, N297A, V domains shown)
VH: B8 VH with K31A, M34I, I35L, I50M, I51M, S61T
VL: B8 VL with S30D, N31S, Y32S, E92D, S98Y, V101I
notes: humanized form of Ab11
B14: Ab1.H (antibody, human IgG1, kappa, N297A, V domains shown)
VH: B8 VH with K31N, I50M, I102H
VL: B8 VL with N31S, E92D, S96G
notes: humanized form of Ab1

By koff is commonly meant a measure of how fast the partners let go of each other. As usually defined, the Kd is a measure of binding affinity in units of concentration. Read a high Kd as weaker binding. One may read the kon as the second-order rate constant of association. A lower kon goes with slow association. The term EC50 denotes the concentration needed to bring the measured effect to its halfway point. Read a high EC50 as weaker potency.

Residue numbers refer to the chain shown, from its start. Ends that are not written are not given here.

One test deals with T1, human ACTH 1-13 (human, ends and bridges not checked).
T1 construct: also called human alpha-MSH (ACTH 1-13); alpha-MSH
T1 peptide: SYSMEHFRWGKPV
The experiment in a line: SPR ProteOn, antibody immobilised. Here is the method: (§1) Antibody was immobilized to the surface of general amine coupling (GLC or GLM) Chips (Bio-Rad). […] At the chosen concentrations of antigen (ranging from 454 ng/ml to 5.6 ng/ml) association times of 200 seconds and dissociation times of 30-200 minutes were used with the ProteOnTM Manager Software (v3.1.0.6, Bio-Rad) to group and fit data using a 1:1 Langmuir binding model. Surfaces were regenerated between analyte queries using 10 mM glycine at pH 2.0. Data repeated across a single density was averaged and a single KD and standard propagation of error calculated for each antibody.
The molecule B1 yielded a koff greater than 0.1 s⁻¹.

With B2, the koff is greater than 0.1 s⁻¹.

B3 gave a koff greater than 0.1 s⁻¹.

B4 had a koff greater than 0.1 s⁻¹.

Turning to B5, the koff was greater than 0.1 s⁻¹.

Another test addresses T2, human ACTH 1-39 (human).
T2 construct: unlabelled synthetic peptide (Bachem or American Peptide) as used in SPR and cell assays; also called huACTH 1-39; huACTH(1-39)
T2 peptide: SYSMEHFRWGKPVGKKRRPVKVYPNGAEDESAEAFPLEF
The experiment in a line: SPR ProteOn, antibody immobilised. Here is the method: as §1
Regarding B6, the Kd worked out at 0.037 nM, the off-rate constant (koff) was 3.7e-05 s⁻¹ and the kon was 1e+06 M⁻¹ s⁻¹.

In the case of B1, the Kd was determined as 0.19 nM and the koff was 0.00019 s⁻¹.

B2 returned an equilibrium dissociation constant (Kd) of 0.04 nM, a koff of 4e-05 s⁻¹ and an on-rate (kon) of 1e+06 M⁻¹ s⁻¹.

B3 returned an equilibrium dissociation constant (Kd) of 0.11 nM, a koff of 0.00011 s⁻¹ and a kon of 1e+06 M⁻¹ s⁻¹.

B5 returned a Kd of 0.27 nM, a koff of 0.00027 s⁻¹ and a kon of 1e+06 M⁻¹ s⁻¹.

The next test has as its target T3, human ACTH 18-39 (human).
T3 construct: also called CLIP; CLIP (ACTH 18-39)
T3 peptide: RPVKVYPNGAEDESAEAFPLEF
The experiment in a line: SPR ProteOn, antibody immobilised. The procedure: as §1
Molecule B6 had a koff greater than 0.1 s⁻¹.

As for B7, the koff is greater than 0.1 s⁻¹.

The molecule B8 returned a Kd of 28 nM.

Turning to B9, binding was put at a Kd of 20 nM.

B10 returned a Kd of 8.8 nM.

As to B11, binding was characterised by a dissociation constant (Kd) of 13 nM.

Take B12: the Kd is 92 nM.

In turn, B13 displayed a Kd of 20 nM.

Molecule B14 displayed a Kd of 20 nM.

Turning to B1, binding was characterised by a dissociation constant (Kd) of 150 nM, the koff was 0.092 s⁻¹ and the kon was found to be 620000 M⁻¹ s⁻¹.

Take B5: the Kd worked out at 270 nM, the koff turned out to be 0.19 s⁻¹ and the kon was 710000 M⁻¹ s⁻¹.

The target of the next test is T2, human ACTH 1-39. The experiment in a line: cell-based or functional assay.
Consider B6, for which the “Y1 Cells IC50” value worked out at 2.49 nM.

As to B7, the “Y1 Cells IC50” value amounted to 3.47 nM.

As for B1, the “Y1 Cells IC50” value was determined as 2.36 nM.

For the molecule B2, the “Y1 Cells IC50” value was 1.53 nM.

For the molecule B3, the “Y1 Cells IC50” value worked out at 5.98 nM.

Consider B4, for which the “Y1 Cells IC50” value was 2.68 nM.

As for B5, the “Y1 Cells IC50” value amounted to 17.2 nM.

The next test concerns the target T3, human ACTH 18-39. The experiment in a line: SPR ProteOn, antibody immobilised; SPR, antibody on the chip, CLIP alone (Table 5). Here is the method: as §1
B2 showed a Kd of 54 nM, an off-rate constant (koff) of 0.086 s⁻¹ and a kon of 1.6e+06 M⁻¹ s⁻¹.

B3 gave an equilibrium dissociation constant (Kd) of 250 nM, a koff of 0.27 s⁻¹ and a kon of 1.1e+06 M⁻¹ s⁻¹.

In turn, B4 displayed a Kd of 27 nM, a koff of 0.024 s⁻¹ and a kon of 890000 M⁻¹ s⁻¹.

The target of a further test is T2, human ACTH 1-39. The experiment in a line: cell-based or functional assay. The source holds these as a separate data set.
For the molecule B6, the “MC3R IC50” value was found to be 64.2 nM, the “MC4R IC50” value amounted to 49.7 nM and the “MC5R IC50” value is 1100 nM.

As for B1, the “MC3R IC50” value is 101 nM, the “MC4R IC50” value stood at 56.4 nM and the “MC5R IC50” value stood at 1100 nM.

As for B2, the “MC3R IC50” value was 108 nM, the “MC4R IC50” value stood at 49.4 nM and the “MC5R IC50” value stood at 4200 nM.

As for B3, the “MC3R IC50” value is 133 nM, the “MC4R IC50” value stood at 66.3 nM and the “MC5R IC50” value came to 5400 nM.

B5: the “MC3R IC50” value was found to be 113 nM, the “MC4R IC50” value came out at 65.8 nM and the “MC5R IC50” value was found to be 1300 nM.

The target in another test is T1, human ACTH 1-13. The experiment in a line: SPR ProteOn, antibody immobilised; SPR, antibody on the chip, alpha-MSH alone (Table 6). The procedure:
as §1
B6 displayed a Kd of 54 nM, an off-rate constant (koff) of 0.013 s⁻¹ and an association rate constant (kon) of roughly 240000 M⁻¹ s⁻¹.

Consider B7, for which the Kd turned out to be 63 nM, the koff worked out at 0.009 s⁻¹ and the on-rate (kon) is roughly 140000 M⁻¹ s⁻¹.

Another test concerns the target T2, human ACTH 1-39. The experiment in a line: cell-based or functional assay. This is another data set of the same source.
Regarding B6, the “MC2R IC50” value is 0.09 nM.

As for B7, the “MC2R IC50” value amounted to 0.12 nM.

As to B1, the “MC2R IC50” value was 0.14 nM.

Regarding B2, the “MC2R IC50” value came out at 0.03 nM.

Take B3: the “MC2R IC50” value was 0.16 nM.

Take B4: the “MC2R IC50” value was determined as 0.05 nM.

For B5, the “MC2R IC50” value stood at 0.46 nM.

For a further test, the target named is T2, human ACTH 1-39. The experiment in a line: cell-based or functional assay. The source holds these as a separate data set.
As to B6, the “MC1R IC50” value turned out to be 1.29 nM.

B1: the “MC1R IC50” value was 2.38 nM.

B2: the “MC1R IC50” value was determined as 1.49 nM.

Turning to B3, the “MC1R IC50” value was 2.14 nM.

Turning to B4, the “MC1R IC50” value amounted to 1.66 nM.

For B5, the “MC1R IC50” value was 5.73 nM.

The target in another test is T4, N-term biotinylated human ACTH 1-39 (human, N-terminal biotin).
T4 construct: also called huACTH 1-39
T4 peptide: T2 peptide
The experiment in a line: ELISA, biotin-ACTH 1-39 on neutravidin plate. The procedure: All incubations were done at room temperature. […] The plates were then blocked using a blocking solution (PBS, 0.5% fish skin gelatin, 0.05% Tween-20) for approximately one hour. The blocking solution was then removed and the plates were then incubated with a dilution series of the antibody being tested for approximately one hour. At the end of this incubation, the plate was washed three times with wash buffer and further incubated with a secondary antibody containing solution (Peroxidase conjugated AffmiPure™ F(ab′)₂ fragment goat anti-human IgG, Fc fragment specific (Jackson Immunoresearch) for approximately 45 minutes and washed three times. Next a substrate solution (TMB peroxidase substrate, BioFx®, SurModics, Eden Prairie, Minn.) was added and incubated for 3 to 5 minutes in the dark. The reaction was stopped by addition of 0.5 M HCl and the plate was read at 450 nm in a plate-reader.
(In general: An ELISA detects its analyte on a solid surface through an enzyme-linked reagent.)
B6 came in with an EC50 of 2.24 nM.

As for B7, the EC50 worked out at 2.05 nM.

Take B1: a half-maximal response (EC50) required 0.48 nM.

Molecule B3 yielded a concentration giving a half-maximal response (EC50) of 1.57 nM.

As for B4, the response was half-maximal at 0.76 nM (EC50).

For B5, the EC50 is 0.39 nM.

The values above are taken from patent US20230174641A1 (H LUNDBECK A S, published 2023).
